Laboratory results reported in the supplement of paper PMC9170038.

Tested on: MS2 coat protein
Assay: apparent KD of MS2 coat protein; designed switch direction (-1 OFF switch, 1 ON switch): 1; higher = weaker reporter binding
Procedure, shortened: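 SNAP-549-labelled MS2 coat protein was titrated, doubling from 0.7 or 1.5 nM to 3 µM, over designed RNA switches transcribed on Illumina chips by stalled E. coli RNA polymerase. Runs were done without input, with 200 uM small-molecule ligand, or with an oligonucleotide input. Apparent KD is the per-design median over clusters of curve-fitted normalised fluorescence.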

[1] = input ligand: microRNA oligo, concentration not stated
[2] = Eterna round: R95, input ligand: FMN 200 uM
[3] = Eterna round: R95, input ligand: microRNA oligo, concentration not stated
[4] = Eterna round: R95, input ligand: none

| Sequence | apparent KD of MS2 coat protein (input ligand: FMN 200 uM) | apparent KD of MS2 coat protein [1] | apparent KD of MS2 coat protein (input ligand: none) | apparent KD of MS2 coat protein [2] | apparent KD of MS2 coat protein [3] | apparent KD of MS2 coat protein [4] |
| --- | --- | --- | --- | --- | --- | --- |
| GGAAUAUGAUGUUACAUGAGGAUCACCCAUGUAGUGAUAACUAAGGAUAUCUGUUAAGAUAAUUAAGAGAAGGUAGGAUCAUAA [AK SSNG3-V2-8.2] (Eterna round: R96, puzzle: Same State NG 3) | 34.7 nM | 37.5 nM | 42.4 nM |  |  |  |
| GAGGAACAGGCCAACAUGAGGAUCACCCAUGUCCUCGCACUUCAGGAUAUCUGGAGGAAGAAGAAAGAGAAGGGAAGGUGAAGC [AK SSNG3-V2-34.2] (Eterna round: R96, puzzle: Same State NG 3) | 202 nM | 30.1 nM | 19.3 nM |  |  |  |
| AUAAGUUCGAUGCUCGUCUCUCCGUACUAACAUGAGGAUCACCCAUGUGGUCGGGAAGUAGCCCGACCAGUAUGGCC [Vearebe] (puzzle: Sensor for hsa-mir-208a) |  |  |  | 65.4 nM | 53.3 nM | 82.1 nM |
| AUACUCAUGUAAGGAUAUGCAGCCGUUUCGGCUGCAGAAGGUACUAUAAUACAUGAGGAUCACCCAUGUCUCUAUUAUUUAGUU [JL SSNG1 1.46] (Eterna round: R96, puzzle: Same State NG 1) | 72.1 nM | 46.6 nM | 55.1 nM |  |  |  |
| GCACCUCGAUGAGGAUAUACAAGCGGAGAUUACAUGAGGAUCACCCAUGUGUGUCGCUUUCGAUGGUAGAAGGCAUACGAGGCA [Eternabot solution 14] (Eterna round: R96, puzzle: Same State NG 2) | 16.6 nM | 52.5 nM | 59.2 nM |  |  |  |
| AGCUAGUACGAAGGAUAUACAAACAUGAGGAUCACCCAUGUAUACAUGGUUUGAUGAGACUACAUGUAGAAGGUCGUACUAGCA [SameState NG2 #14] (Eterna round: R96, puzzle: Same State NG 2) |  | 176 nM |  |  |  |  |
| ACAUGAGGAUCACCCAUGUCUUUAUCCGAUUCUUCAUUUACGUAGGAUAUCGUCUAUACUAUCAUCGAGAAGGACGUUCUUUAA [JR_SSNG3_Sub070] (Eterna round: R96, puzzle: Same State NG 3) |  | 13.9 nM |  |  |  |  |
| UAGAGAGGAAGCGAGGAUAUCGUGGGAGGGACAUGAGGAUCACCCAUGUAUGAUGUUGAGAGGAACGAGAAGGCGCAGGAAAGUA [JR_SS2_Sub077] (puzzle: Same State 2) |  |  |  | 151 nM | 137 nM | 349 nM |
| GUGGCCCAGGCACAGGAUAUGUUUCUCGUAACAUGAGGAUCACCCAUGUGCCUAUGAGAUUUAAUGCAGAAGGGUGCACGCCACU [Mat - Same State 2 - Mod of UCT - D79] (puzzle: Same State 2) |  |  |  | 24.1 nM | 95.8 nM | 184 nM |
| GCGGAACCUGACAUGAGGAUCACCCAUGUUCCGGAAACGGCACAGGAUAUCUGUCCGAAAAGGUCAGAGAAGGGUGGAAACCGC [Fiskers NG3ss - 98] (Eterna round: R96, puzzle: Same State NG 3) | 68 nM | 179 nM | 193 nM |  |  |  |
| CAGCGCUGUCGAGAGGAUAUGCGGUGAUGGACAUGAGGAUCACCCAUGUUAGCGAUAGCAUUACGGUAGAAGGCUCUACAGCUGC [Soteed no mod] (puzzle: Same State 2) |  |  |  | 15 nM | 25.5 nM | 30.2 nM |
| CGACACACGGCAGGAUAUGCUUAGCAAAGCUAAGCAGAAGGGCCUCAUGUCGUGGAAACGUGACAUGAGGAUCACCCAUGUCGC [Omei SS(NG)1 C] (Eterna round: R96, puzzle: Same State NG 1) | 31 nM | 14.6 nM | 19.9 nM |  |  |  |
| UUUAGUUGCGGGCAGGAUAUGUAUUAAAAUACAUGAGGAUCACCCAUGUGAGGUCAUAAAGACCUGCAGAAGGGCCAAUCGCGAC [Laonerce - 17] (puzzle: Same State 2) |  |  |  | 11.5 nM | 86.8 nM | 48.3 nM |
| CUGAGCAAUCAAGGAUAUCACGUCGAUUAGACGUGAGAAGGUGAUCAUAACAUGAGGAUCACCCAUGUAUUACAUGGAGCUCAG [Brourd's SSNG1/1-A2 mod 1] (Eterna round: R96, puzzle: Same State NG 1) | 533 nM | 124 nM | 397 nM |  |  |  |
| CGUCCGGCCUGUGCUGGCCGGAAGCAUGUACAUGAGGAUCACCCAUGUUCAUGUGCUGGCUUUUUGCUCGUCUUGUG [salish99_mir208a_011] (puzzle: Sensor for hsa-mir-208a) |  |  |  | 13.9 nM | 11.1 nM | 14 nM |
| GCCAUCCAAUGAGGAUAUGGCACCGUUUCGGUGCCAGAAGGCAUGUCAAUUGACAUGAGGAUCACCCAUGUAUUAUGGAUGGCA [JL Fiskers NG1ss - 33 mod 2] (Eterna round: R96, puzzle: Same State NG 1) | 101 nM | 739 nM | 1390 nM |  |  |  |
| AUUUUUAAUGCAGGAUAUGAUUAACAUGAGGAUCACCCAUGUGGUGUUGUGAGUAAGGAGAGUGAUCAGAAGGGCAAUUUUUUU [JMF's solution 78] (Eterna round: R96, puzzle: Same State NG 2) | 731 nM | 226 nM | 433 nM |  |  |  |
| UGAAUAGUUACAGGAUAUGAGCCGUAAAUUGGGUCAGAAGGGUGGGUGUUCUGCGCGGUGUGUUACAUGAGGAUCACCCAUGUU [SameState NG1 #30] (Eterna round: R96, puzzle: Same State NG 1) | 245 nM | 99.8 nM | 244 nM |  |  |  |
| UCUUGGUUUUUGCUCGUUUUUUGUGUUGAACAUGAGGAUCACCCAUGUAUUGUACAGUCCAGUUUAAUAAUGGUCCA [JMF 5] (puzzle: Sensor for hsa-mir-208a) |  |  |  | 33.9 nM | 24.6 nM | 48.8 nM |
| GGUAGGUUACUACCAAACAACAUGAGGAUCACCCAUGUGUGGAAGGAUAUGGUACCUAUUUGGUACCAGAAGGUCCAAUUAAUU [Fiskers NG3ss - 4] (Eterna round: R96, puzzle: Same State NG 3) | 72.3 nM | 36.4 nM | 63.1 nM |  |  |  |
| CUUGGGUGGCUGGAGGAUAUUCGAGUGGUAACAUGAGGAUCACCCAUGUGUCGCGCGGUACACGAGGAGAAGGCUGGCGGCCGGC (puzzle: Same State 2) |  |  |  |  | 84.8 nM |  |
| CGUGAACAUGAGGAUCACCCAUGUGAAAAACGUAGAGGAUAUGUCACAUGAGUGUAAAAGACAGAAGGCUAUCGUG [Mod 2 of Round 1 starryjess' Mod pf Nando] (Eterna round: R96, puzzle: Same State 1) | 35.4 nM | 172 nM | 243 nM |  |  |  |
| CACAUGAGGAUCACCCAUGUCAGACAAAGGAGCAUGACGCUACAGGAUAUGUGAGCGACUAACGAAUAGAAGGGUAGCCAUCAC [Eternabot solution 27] (Eterna round: R96, puzzle: Same State NG 3) | 27.5 nM | 20.8 nM | 29.3 nM |  |  |  |
